Holding throughout (assay): cell-based or functional assay
The target of assay [1] is IL-10R NatE MESA receptor pair in which both ECDs are IL-10Rα (human; tobacco etch virus).
The target in assay [2] is IL-10R NatE MESA receptor pair in which both ECDs are IL-10Rβ (human; tobacco etch virus).
Assay [3] addresses IL-10R NatE MESA receptor pair: CTEVp receptor with an IL-10Ra signal sequence, ECD, and TMD paired with a NTEVp receptor with an IL-10Rb ECD and TMD and a hCD8a signal sequence (human; tobacco etch virus).
The target of assay [4] is VEGFR NatE MESA receptor pair: CTEVp (190K) receptor with a VEGFR1 signal sequence, ECD, and TMD paired with a NTEVp (WT) receptor with a VEGFR2 signal sequence, ECD, and TMD (human; tobacco etch virus).

Sequence of human vascular endothelial growth factor VEGFA165 (P15692 other isoform, or with tags, fused parts or gaps limits assumed): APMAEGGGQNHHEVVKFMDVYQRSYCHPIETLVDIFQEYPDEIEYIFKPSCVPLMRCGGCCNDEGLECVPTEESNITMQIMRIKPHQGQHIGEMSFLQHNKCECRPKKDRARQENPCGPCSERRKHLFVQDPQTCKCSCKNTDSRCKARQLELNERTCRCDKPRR

The substance “human interleukin 10 (IL-10) (from UniProt P22301 19-178) (ligand)” displayed a fold induction of reporter expression, transfected receptors with co-expressed human IL-10 (fold induction) in assay [1] of 1. The substance further registered a fold induction of reporter expression, transfected receptors with co-expressed human IL-10 (fold induction) in assay [2] of 1. In assay [3], the IL-10 concentration at which reporter expression plateaus, genomically integrated receptors in Jurkat T cells turned out to be 250 ng/mL; the IL-10 concentration at which reporter expression saturates, genomically integrated receptors in HEK293FT cells is 250 ng/mL; the lowest IL-10 concentration distinguished by reporter expression, genomically integrated receptors in HEK293FT cells was found to be 16 ng/mL; the lowest IL-10 dose detected, Jurkats sorted for the top octile of mNeonGreen expression came out at 2 ng/mL. In assay [3], this substance gave a lowest IL-10 dose with a significant increase in reporter expression, antibiotic-selected Jurkat T cells of 16 ng/mL.

“human vascular endothelial growth factor VEGFA165 (from UniProt P15692 27-191) (ligand)”: the dose of recombinant VEGF giving the highest reporter signal, genomically integrated receptors in HEK293FT cells in assay [4] stood at 100 ng/mL.

The values above are taken from patent US20250313607A1.
